# The supplement of paper PMC10567573
# ± gives the standard deviation.
# Assay: protein stability index of a GFP-peptide fusion (GPS, HEK-293T) (PSI 1-6); higher = more stable
# [1] = treatment: DMSO, c terminus: a fixed tail appended
# [2] = treatment: MLN4924 1 uM, 8 h, c terminus: a fixed tail appended
# [3] = treatment: DMSO, c terminus: native
# [4] = treatment: MLN4924 1 uM, 8 h, c terminus: native
# 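Also: 24-mer peptide tiles fused after GFP, lentivirally expressed, FACS-sorted into six equal bins by GFP/DsRed ratio, decoded by Illumina sequencing, PSI is the read-weighted mean bin number.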
Sequence,protein stability index [1],protein stability index [2],protein stability index [3],protein stability index [4]
TFAGDTCQVALNFANEEEAKKFRK [WASL],4.75 ± 0.12,4.73 ± 0.32,–,–
TGPPCDRQWTVSDWGPCSGSCGQG [ADAMTSL2],3.67 ± 0.45,3.51 ± 0.24,–,–
TGPQLPESLEDVAMYISQEEWGHQ [ZNF263],4.67 ± 0.1,4.52 ± 0.29,–,–
TGSTYNLSSGMAVAGMPTAYDLSS [CARM1],3.27 ± 0.21,3.42 ± 0.44,–,–
TICYCPEKGTWTELEGDVAEPLAG [KLHL14],4.39 ± 0.18,4.59 ± 0.26,–,–
TIGFGDYVALQTKGALQKKPLYVA [KCNK9],2.29 ± 0.19,2.63 ± 0.28,–,–
TIKHPGGAGAEESELQAYIAQCQD [MCOLN1],5.27 ± 0.2,5.23 ± 0.31,–,–
TILLDGQRVKLKLWDTSGQGRFCT [RAB40A],2.21 ± 0.13,2.21 ± 0.23,–,–
TKKLRLTKPSKSAALHIDLCKATS [INTS4],2.91 ± 0.17,3.13 ± 0.22,–,–
TKPKTTAIQGISEKEKAEIEAKEA [DLC1],5.56 ± 0.25,5.35 ± 0.35,–,–
TLASVPPAATFGADDLVLTLSNPQ [ELF3],4.28 ± 0.21,4.25 ± 0.2,–,–
TLGASSLREERGHPLHPRHRKAVH [C6orf223],4.54 ± 0.25,4.5 ± 0.098,–,–
TLLLELEQDSGVQVEGLTVQYLGQ [ADAMTS4],2.87 ± 0.72,3.23 ± 0.38,–,–
TLLVCGKKAYDYFQAKKIPIVSSL [PDZK1],2.6 ± 0.75,2.58 ± 0.13,–,–
TLNVDRKEKCVSLPDCCHGSELRD [DLC1],4.15 ± 0.1,4.26 ± 0.15,–,–
TLPVLEASSWKKQVSHDFLETRFK [FBXO34],3.16 ± 0.66,3.1 ± 0.41,–,–
TPAKSLDKFIEDYLLPDTCFRMQI [OAS1],2.51 ± 0.51,2.65 ± 0.48,–,–
TPEPDTCHELLGHVPLLAEPSFAQ [TPH1],3.96 ± 0.27,3.91 ± 0.2,–,–
TPETRAKFTQDNLCRAQRERLASA [TEKT4],4.17 ± 0.23,4.35 ± 0.35,–,–
TPGGRGDMKYGIYAVENEHMNRLQ [VTI1B],3.69 ± 0.33,3.55 ± 0.63,–,–
TPLQSRTSIVQAAAGGVPGGGSNN [PDLIM7],4.71 ± 0.2,5.03 ± 0.24,–,–
TQHNFQEVMESEEFMLLPANQLID [KLHL20],4.43 ± 0.18,4.66 ± 0.24,–,–

Sequence,protein stability index [1],protein stability index [2],protein stability index [3],protein stability index [4]
TQIRTITEEIRDGKVISSREHVQS [KRT36],4.75 ± 0.088,4.86 ± 0.1,–,–
TQQNRKLTDFYPVRRSSRKSKAEL [KMT5A],2.97 ± 0.89,3.76 ± 0.29,–,–
TQSLPTASASKFPSSGPVTPQPTA [AUP1],4.85 ± 0.22,4.78 ± 0.16,–,–
TRILKHSPESSRGQCGENLAWASY [GLIPR2],2.38 ± 0.44,2.38 ± 0.18,–,–
TSCSLELIGDLIGHSSSVEMFLYF [WDR41],3.13 ± 0.88,2.4 ± 0.74,–,–
TSETSHSPLYADPYTPPATSHRRV [PLEKHN1],4.39 ± 0.12,4.34 ± 0.08,–,–
TSGGSNIIYVASNHFVWRLIPVPM [VPS39],2.44 ± 0.36,2.51 ± 0.74,–,–
TSVLATLVVFAVLGFKANIMNEKC [SLC6A17],2.66 ± 0.12,3.31 ± 0.11,–,–
TTEQHVPEVEVQVKRRRTASLSNQ [SNURF],5.25 ± 0.27,5.23 ± 0.17,–,–
TTSDIPHMLNQVESKVKDILSKVQ [FAM98B],2.48 ± 0.38,2.32 ± 0.32,–,–
TTVPDGPTQLRALNLTEGFAVLHW [TNXB],2.18 ± 0.098,2.05 ± 0.065,–,–
TVETCRALGKLLPRETLCTELVLS [LRRC45],2.67 ± 0.25,2.55 ± 0.13,–,–
TVLENEDDMLLFDEQEKGIVTKFY [FAN1],3.65 ± 0.12,3.72 ± 0.26,–,–
TVMILPVTHTEISPEQQFDRSVQR [TMEM175],3.64 ± 0.28,3.76 ± 0.16,–,–
TVSIMEPGETRRNSYPRADTGLFS [TRIM29],3.81 ± 0.2,3.64 ± 0.37,–,–
TWDGRPLTMAATFDDCLYALCVVD [GFOD1],2.38 ± 0.46,2.35 ± 0.61,–,–
TWKVLFCSMSATFTLNFFRSGIQF [CLCN6],3.25 ± 0.11,3.2 ± 0.73,–,–
TWRLPDVSEAGGSGRLSASWEPLS [FCHO1],3.38 ± 0.13,3.24 ± 0.26,–,–
TWWIMFLSTFSVPYFLFQHWATGY [SOAT1],3.18 ± 0.29,2.77 ± 0.51,–,–
TYECRCIGEEKEMWNFGEKYARF [TIA1],–,–,2.58 ± 0.59,2.93 ± 0.65
TYGRRAKGHNTPKDIAHFWELGGG [DYNC2LI1],2.84 ± 0.11,3.07 ± 0.18,–,–
TYKRFEGLTQRGSIPTYMKAGKL [STK38L],–,–,2.26 ± 0.18,2.41 ± 0.19
